Tests used:
DANCE-specific protease [1] = assay: Inhibition of DANCE cleavage by protease inhibitors in transfected 293T cells; assay type: cell-based; details: 293T cells expressing human DANCE, serum-free medium with inhibitor, 48 hours; Western blotting with anti-FLAG M2
Procedure: 293T cells were used in expression experiments. Transfection was performed using the Lipofect AMINE Plus reagent as directed in the product instructions. 24 hours after transfection, the medium was exchanged with serum-free medium, and cultivation was continued for 48 hours; the resulting supernatant or cell lysate was used for Western blotting and in vitro binding assay.
A human DANCE cDNA with FLAG tag and 6×His tag added to the carboxyl terminus thereof was transfected to 293T cells; the cells were cultured using a serum-free medium comprising a cysteine protease inhibitor (E64) or serine protease inhibitor (aprotinin) for 48 hours; a recombinant protein was precipitated from the culture supernatant using Ni-NTA agarose and was developed by SDS-PAGE and Western blotting was performed using anti-FLAG M2 antibody.

DANCE-specific protease [2] = assay: Cleavage of mutated versus normal form of DANCE expressed in 293T cells; assay type: cell-based, human; details: Arg77 substituted with Ala, serum-free medium 48 hours, Western blotting with anti-FLAG M2
Source text: The 77th amino acid of human DANCE, arginine, was substituted with alanine using the Quick Change in vitro mutagenesis kit (Stratagene). The other procedures were the same as pEF6-hDANCE-FLAG.
An expression vector for the mutated form of DANCE resulting from the substitution of the 77th arginine of DANCE with alanine (with C-terminal FLAG and 6×His tag) (FIG. 7), and an expression vector for normal form of DANCE (with C-terminal FLAG and 6×His tag) were transfected to 293T cells; the cells were cultured using serum-free medium for 48 hours; a recombinant protein was precipitated from the culture supernatant using Ni-NTA agarose, and developed by SDS-PAGE, and Western blotting was performed using anti-FLAG M2 antibody.

human skin fibroblasts = assay: Formation of elastic fibers in cultured human skin fibroblasts; assay type: cell-based
Procedure: Human fibroblasts were kindly supplied by the Department of Plastic Surgery, Kyoto University Hospital. A cover glass was placed on the bottom of a 24-well plate, on which human fibroblasts were seeded at 7.5×10^4 cells per well, and cultured in a DMEM medium supplemented with 10% FBS at 37° C. in the presence of 5% CO2. After the plate washed with PBS on Day 3, the medium was exchanged with a DMEM/F12 medium not supplemented with FBS, and purified DANCE protein, cleaved form of DANCE protein 4 μg/ml, or FBS was added. Cultivation was continued at 37° C. in the presence of 5% CO2, and the cells were fixed and immunologically stained on Day 14.
On Day 14 of cultivation, the cells were washed with 1 ml of PBS three times, after which they were fixed with 100% methanol at −20° C. for 30 minutes. After washing with PBS, the cells were subjected to blocking with a PBS containing 2% BSA at room temperature for 30 minutes, after which the cells were incubated with the polyclonal anti-elastin antibody (dilution rate 1/100) and the monoclonal anti-FLAG antibody (dilution rate 1/100) at room temperature for at least 1 hour. The cells were washed with PBS and further incubated with the anti-rabbit Alexa Fluor 488 antibody (dilution rate 1/100) and the anti-mouse Alexa Fluor 546 antibody (dilution rate 1/100) at room temperature for 1 hour. After washing with PBS, the cells were fixed with 4% para-formaldehyde at room temperature for 10 minutes and again washed with PBS, after which the sample was mounted onto a glass slide using a DAPI-containing Vectashield. Examination was performed using a confocal microscope.
Human skin fibroblasts were seeded to reach confluency; the medium was replaced with serum-free medium or a medium containing 10% fetal calf serum; the cells were cultured for 2 weeks; the formation of elastic fibers was analyzed by immunostaining with anti-elastin antibody.

[3] = tested on: vascular endothelial cells; assay: Vascular endothelial cell adhesion assay; assay type: cell-based; details: purified recombinant protein used for coating
Source text: Full-length DANCE promotes the adhesion and extension of vascular endothelial cells via cell surface integrin. The present inventor has reported to date that full-length DANCE can serve as a ligand for the integrins αvβ3, αvβ5, and α9β1. Since the domain serving as the ligand is considered to be around the RGD motif of the amino-terminal domain of DANCE, each recombinant protein of a DANCE mutant wherein RGD was replaced with RGE for one-amino-acid substitution (RGE DANCE), and amino-terminal cleaved form of DANCE (ΔND DANCE) were purified, and these, along with full-length DANCE, were subjected to vascular endothelial cell adhesion assay (FIG. 13).

DANCE = target: T1, DANCE (Bos taurus, UniProt Q5EA62); assay: Precipitation of DANCE-binding proteins from smooth muscle cell culture supernatant (homo-complex); details: 50 μg recombinant human DANCE mixed with 35S-labeled bovine arterial smooth muscle cell supernatant, anti-FLAG precipitation
T1 construct: After bovine arterial smooth muscle cells seeded on a 9-cm plate were labeled with 35S-Met and Cys for 24 hours; host or cells: bovine arterial smooth muscle cells (culture supernatant); bait purified from stably transfected 293T cells
T1 sequence (Q5EA62 24-448): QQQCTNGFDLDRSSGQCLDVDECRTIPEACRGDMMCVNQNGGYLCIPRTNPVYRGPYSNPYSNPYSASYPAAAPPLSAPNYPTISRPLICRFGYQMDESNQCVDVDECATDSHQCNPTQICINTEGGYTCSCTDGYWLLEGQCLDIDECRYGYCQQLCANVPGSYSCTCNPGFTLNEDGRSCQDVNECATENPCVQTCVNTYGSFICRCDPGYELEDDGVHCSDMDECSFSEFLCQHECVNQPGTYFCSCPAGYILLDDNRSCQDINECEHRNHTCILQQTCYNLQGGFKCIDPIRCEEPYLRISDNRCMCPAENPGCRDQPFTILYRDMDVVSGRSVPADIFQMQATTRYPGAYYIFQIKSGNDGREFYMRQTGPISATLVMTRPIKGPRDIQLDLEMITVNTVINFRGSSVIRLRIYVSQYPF
T1 sequence (Q9UBX5 24-448 partner): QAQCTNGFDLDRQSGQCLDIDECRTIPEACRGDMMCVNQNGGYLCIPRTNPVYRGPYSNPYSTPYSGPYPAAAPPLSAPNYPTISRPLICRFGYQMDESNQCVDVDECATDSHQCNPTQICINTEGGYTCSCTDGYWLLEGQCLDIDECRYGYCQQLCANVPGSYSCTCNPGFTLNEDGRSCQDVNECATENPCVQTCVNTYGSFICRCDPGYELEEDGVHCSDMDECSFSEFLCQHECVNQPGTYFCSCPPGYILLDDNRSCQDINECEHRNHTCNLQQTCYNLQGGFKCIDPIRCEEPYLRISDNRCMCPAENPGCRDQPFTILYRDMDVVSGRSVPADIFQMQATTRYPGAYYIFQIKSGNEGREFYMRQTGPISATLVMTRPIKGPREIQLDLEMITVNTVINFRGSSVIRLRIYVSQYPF
Procedure: (§1) After bovine arterial smooth muscle cells seeded on a 9-cm plate were labeled with 35S-Met and Cys for 24 hours, the culture supernatant and 50 μg of recombinant human DANCE (with C-terminal FLAG and 6×His) were mixed and precipitated with anti-FLAG agarose (Sigma), and the resulting precipitate was developed by SDS-PAGE and autoradiography was performed. The same culture supernatant was immunoprecipitated with commercially available antibodies against elastic fiber constituent protein (elastin, fibrillin 1, fibrillin 2 and LTBP2), and developed with the same SDS-PAGE gel, and autoradiography was performed.

LTBP2 = target: T2, LTBP2 (Bos taurus, UniProt Q28019); assay: Precipitation of DANCE-binding proteins from smooth muscle cell culture supernatant (LTBP2); details: 50 μg recombinant human DANCE mixed with 35S-labeled bovine arterial smooth muscle cell supernatant, anti-FLAG precipitation
T2 construct: host or cells: bovine arterial smooth muscle cells (culture supernatant); bait purified from stably transfected 293T cells
T2 sequence (Q28019 36-1842, one chain of several): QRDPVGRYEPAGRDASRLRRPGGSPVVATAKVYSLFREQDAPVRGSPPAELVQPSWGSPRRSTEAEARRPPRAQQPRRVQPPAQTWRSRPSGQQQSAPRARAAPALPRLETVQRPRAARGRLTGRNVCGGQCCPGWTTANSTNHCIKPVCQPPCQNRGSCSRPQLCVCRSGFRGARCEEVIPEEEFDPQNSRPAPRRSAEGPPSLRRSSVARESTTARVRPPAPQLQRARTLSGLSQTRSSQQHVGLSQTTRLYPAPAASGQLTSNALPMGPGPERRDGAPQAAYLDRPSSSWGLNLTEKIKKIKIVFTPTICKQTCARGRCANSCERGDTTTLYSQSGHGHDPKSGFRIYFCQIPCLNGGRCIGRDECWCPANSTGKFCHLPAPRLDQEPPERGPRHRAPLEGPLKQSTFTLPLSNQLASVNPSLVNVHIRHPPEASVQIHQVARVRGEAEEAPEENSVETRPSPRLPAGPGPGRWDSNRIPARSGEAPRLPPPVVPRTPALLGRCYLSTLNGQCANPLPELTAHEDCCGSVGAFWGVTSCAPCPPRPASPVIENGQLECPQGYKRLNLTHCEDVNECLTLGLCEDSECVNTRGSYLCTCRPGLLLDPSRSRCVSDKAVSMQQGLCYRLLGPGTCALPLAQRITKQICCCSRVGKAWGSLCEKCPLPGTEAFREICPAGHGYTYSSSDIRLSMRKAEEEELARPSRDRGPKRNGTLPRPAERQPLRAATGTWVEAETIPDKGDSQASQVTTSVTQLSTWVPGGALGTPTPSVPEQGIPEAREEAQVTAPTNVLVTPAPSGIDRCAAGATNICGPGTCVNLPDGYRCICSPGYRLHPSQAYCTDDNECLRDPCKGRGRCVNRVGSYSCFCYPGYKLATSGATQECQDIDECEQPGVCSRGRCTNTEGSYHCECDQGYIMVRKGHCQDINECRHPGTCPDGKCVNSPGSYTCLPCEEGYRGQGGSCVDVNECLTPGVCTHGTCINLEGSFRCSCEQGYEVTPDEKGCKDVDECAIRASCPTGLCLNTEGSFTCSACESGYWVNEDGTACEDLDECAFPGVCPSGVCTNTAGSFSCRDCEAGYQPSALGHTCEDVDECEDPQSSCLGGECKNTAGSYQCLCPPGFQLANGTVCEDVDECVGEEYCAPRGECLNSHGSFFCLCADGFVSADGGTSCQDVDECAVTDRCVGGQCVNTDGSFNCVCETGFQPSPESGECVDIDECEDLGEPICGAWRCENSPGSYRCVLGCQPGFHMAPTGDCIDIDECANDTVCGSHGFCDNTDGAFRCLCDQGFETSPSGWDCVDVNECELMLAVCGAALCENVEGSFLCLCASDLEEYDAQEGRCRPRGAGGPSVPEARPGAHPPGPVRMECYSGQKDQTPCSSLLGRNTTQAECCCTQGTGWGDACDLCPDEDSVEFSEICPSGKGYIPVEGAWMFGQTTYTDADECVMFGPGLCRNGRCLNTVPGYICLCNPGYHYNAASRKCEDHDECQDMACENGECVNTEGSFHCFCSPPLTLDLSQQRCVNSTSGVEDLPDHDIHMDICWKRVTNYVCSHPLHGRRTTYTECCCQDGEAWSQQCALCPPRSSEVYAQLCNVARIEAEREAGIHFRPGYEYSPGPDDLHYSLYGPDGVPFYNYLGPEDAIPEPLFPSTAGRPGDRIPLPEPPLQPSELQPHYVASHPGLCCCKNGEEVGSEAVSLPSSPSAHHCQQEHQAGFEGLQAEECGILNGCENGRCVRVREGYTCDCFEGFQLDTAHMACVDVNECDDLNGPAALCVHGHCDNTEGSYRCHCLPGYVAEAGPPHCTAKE
Procedure: as §1

human lysyl oxidase = target: T3, human lysyl oxidase (Homo sapiens, UniProt P28300); assay: In vitro binding assay, DANCE with lysyl oxidase; details: anti-FLAG precipitation, anti-Myc detection
T3 construct: The 22nd amino acid to the 417th amino acid of the polypeptide (417 amino acids) encoded by human lysyl oxidase; expressed in transfected cells
T3 sequence (P28300 22-417): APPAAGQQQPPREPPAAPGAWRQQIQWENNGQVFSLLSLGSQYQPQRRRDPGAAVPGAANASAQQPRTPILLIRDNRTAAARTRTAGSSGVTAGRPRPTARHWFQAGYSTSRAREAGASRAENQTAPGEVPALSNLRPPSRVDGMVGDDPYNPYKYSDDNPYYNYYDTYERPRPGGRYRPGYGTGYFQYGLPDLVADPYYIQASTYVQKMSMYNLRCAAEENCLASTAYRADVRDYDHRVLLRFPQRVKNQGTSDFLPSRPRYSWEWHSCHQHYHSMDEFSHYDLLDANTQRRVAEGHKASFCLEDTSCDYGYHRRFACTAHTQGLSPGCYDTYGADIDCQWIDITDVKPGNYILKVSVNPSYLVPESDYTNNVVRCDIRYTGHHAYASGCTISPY
T3 sequence (Q9UBX5 24-448 partner): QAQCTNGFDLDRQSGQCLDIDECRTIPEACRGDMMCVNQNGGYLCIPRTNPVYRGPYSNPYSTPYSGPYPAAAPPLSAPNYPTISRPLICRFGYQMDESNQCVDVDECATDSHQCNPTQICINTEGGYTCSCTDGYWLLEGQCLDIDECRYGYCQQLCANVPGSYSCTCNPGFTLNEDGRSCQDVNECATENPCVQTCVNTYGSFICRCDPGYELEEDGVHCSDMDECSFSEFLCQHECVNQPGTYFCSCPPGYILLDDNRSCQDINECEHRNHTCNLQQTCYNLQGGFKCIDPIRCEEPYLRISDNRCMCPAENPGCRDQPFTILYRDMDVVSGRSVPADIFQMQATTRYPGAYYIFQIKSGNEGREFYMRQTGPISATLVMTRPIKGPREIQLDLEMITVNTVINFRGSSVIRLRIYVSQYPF
Procedure: The 22nd amino acid to the 417th amino acid of the polypeptide (417 amino acids) encoded by human lysyl oxidase (GenBank accession number: AF039291.1) cDNA was amplified by a PCR method and incorporated in the XbaI/NotI site of pEF6/ssMyc.
A human DANCE construct with FLAG tag (FIG. 8), a human DANCE construct with Myc tag, and a human LTBP2 construct were separately transfected to 293T cells. After cultivation in serum-free medium for 48 hours, each culture supernatant and cell extract were mixed, and this was used as the protein solution. A protein solution from the DANCE construct with FLAG tag and a protein solution from DANCE or LTBP2 with Myc tag were mixed on ice for 1 hour, and precipitated with anti-FLAG antibody, and the resulting precipitate was developed by SDS-PAGE, and detected using anti-Myc antibody or anti-FLAG antibody.
The assay was performed in the same manner as Example 6 except that a precipitate obtained using anti-FLAG antibody was developed by SDS-PAGE and detected using anti-Myc antibody.

Question: Which “inhibition of the cleavage of DANCE” value (DANCE-specific protease [1]) does the source give for `CC(C)C[C@H](NC(=O)[C@H]1O[C@@H]1C(=O)O)C(=O)NCCCCN=C(N)N` [E64] here?
Answer: not inhibited

Question: Which “inhibition of the cleavage of DANCE” value (DANCE-specific protease [1]) does the source give for aprotinin here?
Answer: inhibited

B1: mutated form of DANCE: mutated form of DANCE resulting from the substitution of the 77th arginine of DANCE with alanine (protein, UniProt Q9UBX5 24-448, looked up, variant R77A)
Fibulin-5: QAQCTNGFDLDRQSGQCLDIDECRTIPEACRGDMMCVNQNGGYLCIPRTNPVYAGPYSNPYSTPYSGPYPAAAPPLSAPNYPTISRPLICRFGYQMDESNQCVDVDECATDSHQCNPTQICINTEGGYTCSCTDGYWLLEGQCLDIDECRYGYCQQLCANVPGSYSCTCNPGFTLNEDGRSCQDVNECATENPCVQTCVNTYGSFICRCDPGYELEEDGVHCSDMDECSFSEFLCQHECVNQPGTYFCSCPPGYILLDDNRSCQDINECEHRNHTCNLQQTCYNLQGGFKCIDPIRCEEPYLRISDNRCMCPAENPGCRDQPFTILYRDMDVVSGRSVPADIFQMQATTRYPGAYYIFQIKSGNEGREFYMRQTGPISATLVMTRPIKGPREIQLDLEMITVNTVINFRGSSVIRLRIYVSQYPF
Question: B1 was tested. Which “resistance to cleavage with a protease” value (DANCE-specific protease [2]) did it give?
Answer: exhibit resistance to cleavage with a protease

B2: DANCE: secretory protein (developmental arteries and neural crest EGF-like; fibulin-5), SEQ ID NO:2 or 4; recombinant human form with C-terminal FLAG and 6×His (protein, listed as Homo sapiens)
chain: MPGIKRILTVTILALCLPSPGNAQAQCTNGFDLDRQSGQCLDIDECRTIPEACRGDMMCVNQNGGYLCIPRTNPVYRGPYSNPYSTPYSGPYPAAAPPLSAPNYPTISRPLICRFGYQMDESNQCVDVDECATDSHQCNPTQICINTEGGYTCSCTDGYWLLEGQCLDIDECRYGYCQQLCANVPGSYSCTCNPGFTLNEDGRSCQDVNECATENPCVQTCVNTYGSFICRCDPGYELEEDGVHCSDMDECSFSEFLCQHECVNQPGTYFCSCPPGYILLDDNRSCQDINECEHRNHTCNLQQTCYNLQGGFKCIDPIRCEEPYLRISDNRCMCPAENPGCRDQPFTILYRDMDVVSGRSVPADIFQMQATTRYPGAYYIFQIKSGNEGREFYMRQTGPISATLVMTRPIKGPREIQLDLEMITVNTVINFRGSSVIRLRIYVSQYPF
modifications: C-terminal FLAG and 6xHis tags
notes: secretory protein (developmental arteries and neural crest EGF-like); recombinant human form with C-terminal FLAG and 6×His
Question: With B2 as the molecule, how does the “formation of elastic fibers (anti-elastin immunostaining)” value (human skin fibroblasts; protein added to serum-free medium at 4 μg/ml, cultured for 2 weeks) read?
Answer: elastic fibers were formed at a higher level than with the serum-containing medium

Question: What about the “localization of the added recombinant protein (anti-FLAG antibody)” value (human skin fibroblasts; serum-free medium, 4 μg/ml) of the same molecule?
Answer: co-localized with the elastic fibers formed

Question: And the cell adhesion activity [3]?
Answer: cell adhesion was promoted with dependence on the concentration of the protein used for coating

Question: What about the “formation of a homo-complex” value (DANCE) of the same molecule?
Answer: forms a homo-complex

Question: And the “binding to LTBP2” value (LTBP2)?
Answer: binds to LTBP2

Question: What about the “binding to lysyl oxidase” value (human lysyl oxidase) of the same molecule?
Answer: suggested to bind to lysyl oxidase

B3: RGE DANCE: DANCE mutant wherein RGD was replaced with RGE for one-amino-acid substitution (protein)
chain: QAQCTNGFDLDRQSGQCLDIDECRTIPEACRGEMMCVNQNGGYLCIPRTNPVYRGPYSNPYSTPYSGPYPAAAPPLSAPNYPTISRPLICRFGYQMDESNQCVDVDECATDSHQCNPTQICINTEGGYTCSCTDGYWLLEGQCLDIDECRYGYCQQLCANVPGSYSCTCNPGFTLNEDGRSCQDVNECATENPCVQTCVNTYGSFICRCDPGYELEEDGVHCSDMDECSFSEFLCQHECVNQPGTYFCSCPPGYILLDDNRSCQDINECEHRNHTCNLQQTCYNLQGGFKCIDPIRCEEPYLRISDNRCMCPAENPGCRDQPFTILYRDMDVVSGRSVPADIFQMQATTRYPGAYYIFQIKSGNEGREFYMRQTGPISATLVMTRPIKGPREIQLDLEMITVNTVINFRGSSVIRLRIYVSQYPF
modifications: left off: small tags and cut ends
notes: DANCE mutant wherein RGD was replaced with RGE for one-amino-acid substitution
Question: With B3 as the molecule, how does the cell adhesion activity [3] read?
Answer: almost no cell adhesion activity
